In the RNAGym collection of RNA variant scans (doi:10.7554/elife.90254):

B1: LINE1-full (parent)
chain: UACGUAGGUGGUUUUCCCCUGAUAGUGCUAAGGGGGCCUGGAAGUUUGGACUGGGCAGAGCUCAACACAGCGUGGCAAAGUGGCUGUGGCUAGACUGCCUCUCUGGAUUCCUCGUCACUCAGCAGGGCAUCUCUGAGAGAAAUGCC

Variants of: B1
Assay: self-cleavage, relative activity (ratio to wild type); higher = more cleavage; in vitro, sequencing; the parent is a self-cleaving ribozyme

Point of comparison: UACGUAGGUGGUUUUCCCCUGAUAGUGCUAAGGGGGCCUGGAAGUUUGGACUGGGCAGAGCUCAACACAGCGUGGCAAAGUGGCUGUGGCUAGACUGCCUCUCUGGAUUCCUCGUUACUCAGCAGGGCAUCUCCGAGAGAAAUGCC, self-cleavage 1.11. Against it:
- UACGUAUGUGGUUUUCCCCUGAUAGUGCUAAGGGGGCCUGGAAGUUUGGACUGGGCAGAGCUCAACACAGCGUGGCAAAGUGGCUGUGGCUAGACUGCCUCUCUGGAUUCCUCGUCACUCAGCAGGGCAUCUCUGGGAGAAAUGCC — higher, 1.86
- UACGUAGGCGGUUUUCCCCUGAUAGUGCUAAGGGGGCCUGGAAGUUUGGACUGGGCAGAGCUCAACGCAGCGUGGCAAAGUGGCUGUGGCUAGACUGCCUCUCUGGAUUCCUCGUCACUCAGCAGGGCAUCUCUGAGAGAAAUGCC — lower, 0.48
- UACGUAGGUGGUUUUCCCCUGAUAGUGCUAAGGGGGCCUGGAAGAUUGGACUGGGCAGAGCUCAACACAGCGUGGCAAAGUGGCUGUGGCUAGACUGCCUCUCUGGAUUCCUCGUCACUCAGCAGGGCAUCUCUGAGAGAUAUGCC — lower, 1.01
- UACGUAGGUGGUUUUCCCCUGGUAGUGCUAAGGGGGCCUGGAAGUUUGGACUGGGCAGAGCUCAACACAGCGUGGCAAAGGGGCUGUGGCUAGACUGCCUCUCUGGAUUCCUCGUCACUCAGCAGGGCAUCUCUGAGAGAAAUGCC — lower, 1.03
- UACGUAGGCGGUUUUCCCCUAAUAGUGCUAAGGGGGCCUGGAAGUUUGGACUGGGCAGAGCUCAACACAGCGUGGCAAAGUGGCUGUGGCUAGACUGCCUCUCUGGAUUCCUCGUCACUCAGCAGGGCAUCUCUGAGAGAAAUGCC — higher, 1.32
- UACGUAGGUGGUUUUCCCCUGAUAGUGCUAAGGGGGCCUGGAAGUUUGGACUGGGCGGAGCUCAACACAGCGUGGCAAAGUGGCUGUGGCUAGACUGCAUCUCUGGAUUCCUCGUCACUCAGCAGGGCAUCUCUGAGAGAAAUGCC — lower, 0.2
- UACGUAGGUGGUUUUCCCCUGACAGUGCUAAGGGGGCCUGGAAGUUUGGACUGGGCAGAGCUCAACACAGCGUGGCAAAGUGGCUGUGGCUAGACUGCCUCUCUGGAUCCCUCGUCACUCAGCAGGGCAUCUCUGAGAGAAAUGCC — higher, 1.84
- UACGUAGGUGGUUUUCCCCUGAUAGUGCUAAGGGGGCCUGGAAGUUUGGACUGGGCAGAGCUCAACACAGCGUGGCAAAGUGGCCGUGGCUAGACUGCCUCUCUGGAUUCCUCGUCACUCAGCAGGUCAUCUCUGAGAGAAAUGCC — lower, 0.14
- UACGUAGGUGGUUUUCCCCUGAUAGUGCUAAGGGGGCCUGGAAGUUUGGACUGGGCAGAGCUCGACACAGCGUGGCAAAGUGGCUGUGGCUAGACUGCCUCUCUGGCUUCCUCGUCACUCAGCAGGGCAUCUCUGAGAGAAAUGCC — lower, 0.12
- UACGUAGGUGGUUUGCCCCUGAUAGUGCUAAGGGGGCCUGGAAGUUUGGACUGGGCAGAGCUCAACACAGCGUGGCAAAGUGGCUGUGGCUAGACUGCCUCUCUGGAUUCCUCAUCACUCAGCAGGGCAUCUCUGAGAGAAAUGCC — lower, 0.87
- UACGUAGGUGGCUUUCCCCUGAUAGUGCUAAGGGGGCCUGGAAGUUUGGACUGGGCAGAGCUCAACACAGCGUGGCAAAGUGGCUGUGGCUAGACUGCCUCUCUGGAUUCCUCGUCACUCAGCAGGGCAUCUAUGAGAGAAAUGCC — higher, 1.67
- UACGUGGGUGGUUUUCCCCUGAUAGUGCUAAGGGGGCCUGGAAGUUUGGACUGGGCAGAGCUCAACACAGCGUGGCAAAGUGGCUGUGGCUAGACUGCCUCUCUGGAUUCCUCGUCACUCAGCGGGGCAUCUCUGAGAGAAAUGCC — lower, 0.38
- UACGUAGGUGGUUUUCCCCUGAUAGUGCUAAGGGGGCCUGGAAGUUUGGACAGGGCAGAGCUCAACACUGCGUGGCAAAGUGGCUGUGGCUAGACUGCCUCUCUGGAUUCCUCGUCACUCAGCAGGGCAUCUCUGAGAGAAAUGCC — lower, 0.08
- UACGUAGGUGGUUUUCCCCUGAUAGUGCUAAGGGGGCCUGGAAGUUUGGACUGGGCAGAGCUCAACACAGCGUGGCAAAGUGGCUGUGGCUAGUCUGCCUCUCUGGAUUCCUCGUCACUCAGCAGGGCAUCUCUGAGAGUAAUGCC — lower, 0.26
- UACGUAGGUGGUUUUCCCCUGAUAGUGCUAAGGGGGCCUGGAAGUUUGGACUGGGCAGAGCUCAACACAGCGUGGCAAAGUGGCUGUGGCUAGACUGCCUCUCUGGAUUCCUCGUAACCCAGCAGGGCAUCUCUGAGAGAAAUGCC — higher, 1.27
- UACGUAGGUGGUUUUCCCCUGAUAGUGCUAACGGGGCCUGGAAGUUUGGACUGGGCAGAGCUCAACACAGCGUGGCAAAGUGGCUGAGGCUAGACUGCCUCUCUGGAUUCCUCGUCACUCAGCAGGGCAUCUCUGAGAGAAAUGCC — lower, 0.06
- UACGUAGGUGGUUUUCCCUUGAUAGUGCUAAGGGGGCCUGGAAGUUUGGACUGGGCAGAGCCCAACACAGCGUGGCAAAGUGGCUGUGGCUAGACUGCCUCUCUGGAUUCCUCGUCACUCAGCAGGGCAUCUCUGAGAGAAAUGCC — lower, 0.06
- UACGUAGGUGGUUUUCCCCUGAUAGUGCUAAGGGGGCCUGGAAGUUUGGACUGGGCAGAGCUCAACACAGCGUGGCAAAGUGGCUGUGGCUAGACUGCCUCCCUGGAUUCCUCGUCACUCAGCAGGGCAUCUCUGUGAGAAAUGCC — higher, 1.8
- UACGUAGGUGGUUUUCCCCUGAUAGUGCUAAGGGGGCCUGGAAGUUUGGACUGGGCAGAGCUCAACACAGCGUGGCAAGGUGGCGGUGGCUAGACUGCCUCUCUGGAUUCCUCGUCACUCAGCAGGGCAUCUCUGAGAGAAAUGCC — lower, 0.11
- UACGUAGGUGGUUUUCCCCUGAUAGUGCUAAGGGGGCCUGGAAGUUUGGACUGGGCAGAGCUCAACACAGCGUGGCAGAGUGGCUGUGGCUAGACUGCCUCUCUGGGUUCCUCGUCACUCAGCAGGGCAUCUCUGAGAGAAAUGCC — higher, 1.26
- UACGCAGGUGGUUUUCCCCUGAUAGUGCUAAGGGGGCCUGGAAGUUUGGACUGGGCAGAGCUCAACACAGCGUGGCAAAGUGGCUGUGGCUAGACUGCCUCUCUGGAUUCCUCGUCACUCAGCAGGGCAUCUCAGAGAGAAAUGCC — lower, 0.62
- UACGUAGGUGGUUUUCCCCUGAUAGUGCUAAGGGGGCCUGGAAGUUUGGACUGGGCAGAGCUCAACACAGCGUGGCAAAGUGGCUGUGGCUAGACUGUCUCUCUGGAUUCCUCGUCACUCGGCAGGGCAUCUCUGAGAGAAAUGCC — lower, 0.44
- UACGUAGGUGGUUUUCCCCUGAUAGUGCUAAGGGGGCCUGGAAGUUUGGACUGGGCAGAGCUCAACACAGCGUGGCAAAGUGGCUGUGGCUAGACUGCCUCUCUGGACUCCUCGUCACCCAGCAGGGCAUCUCUGAGAGAAAUGCC — higher, 2
- UACGUAGGUGGUUUUCCCCUGAUAGUGCUAAGGGGGCCUGGAAGUUUGGACUGGGCAGAGCUCAACACAGCGUGGCAAAGUGGCUGUGGCUAGACUGCCUCUCAGGAUUCCUAGUCACUCAGCAGGGCAUCUCUGAGAGAAAUGCC — lower, 0.91
- UACGUAGGUGGUUUUCCCCUGAUAGUGCUAAGGGGGCCUGGAAGUUUGGACUGGGCAGAGCUCAACACAGCGUGGCAAAGUGGCUGUGGCUAGACCGCCUCUCUGGAUUCCUCGUCACUCAGCAGGGCAUCCCUGAGAGAAAUGCC — lower, 0.11
- UACGUAGGUGGUUUUCCCCUGAUAGUGCUAAGGGGGCCUGGAAGUUUGGACUGGGCUGAGCUCCACACAGCGUGGCAAAGUGGCUGUGGCUAGACUGCCUCUCUGGAUUCCUCGUCACUCAGCAGGGCAUCUCUGAGAGAAAUGCC — lower, 0.06
- UACGUAGGUGGUUUUCCCCUGAUAGUGCUAAGGGGGCCUGGAAGUUUGGACUGGGCAGAGCUCAACGCAGCGUGGCAAAGUGGCUGUGGCUAGACUGCCUCUCUGGAUUCCUCGUCACUCAGCAGAGCAUCUCUGAGAGAAAUGCC — lower, 0.58
- UACGUAGGUGGUUUUCCCCUGAUAGUGCUAAGGGGGCCUGGGAGUUUGGACUGGGCAGAGCUCAGCACAGCGUGGCAAAGUGGCUGUGGCUAGACUGCCUCUCUGGAUUCCUCGUCACUCAGCAGGGCAUCUCUGAGAGAAAUGCC — lower, 0.14
- UACGUAGGUGGUUUUCCCCUGAAGGUGCUAAGGGGGCCUGGAAGUUUGGACUGGGCAGAGCUCAACACAGCGUGGCAAAGUGGCUGUGGCUAGACUGCCUCUCUGGAUUCCUCGUCACUCAGCAGGGCAUCUCUGAGAGAAAUGCC — lower, 0.85
- UACGUAGGUGGUUUUCCCCUGAUAGUGCUAAGGGGGCCUGGAAGUUUGGACUGGGCAGAGCUCAGCACAGCGUGGCAUAGUGGCUGUGGCUAGACUGCCUCUCUGGAUUCCUCGUCACUCAGCAGGGCAUCUCUGAGAGAAAUGCC — lower, 0.03
- UACGUAGGUGAUUUUCCCCUGAUAGUGCUAAGGGGGCCUGGAAGUUUGGACUGGGCAGAGCUCAACACAGCGUGGCAAAGUGGCUGUGGCUAGACUGCCUCUCUGGAUUCCUCGUCACUCAGCAGGGCAUCUCUGAGAGAAGUGCC — higher, 1.23
- UACGUAGGUGGUUUUCCCCUGAUAGUGCUAAGGGGGCCUGGAAGUUUGGACUGGGCAGAGCUCAACACAGCGUGGCAAUGUGGCUGUGGCUAGACUGCCUCUCUGGAUUCCUCGUCACUCAGCAGGGCAUCUCUGAGGGAAAUGCC — higher, 1.76
- UACGUAGGUGGUUUUCCCCUGAUAGUGCUAAUGGGGCCUGGAAGUUUGGACUGGGCAGAGCUCAACACAGCGUGGCAAAGUGGCUGUGGCUAGACUGCCCCUCUGGAUUCCUCGUCACUCAGCAGGGCAUCUCUGAGAGAAAUGCC — higher, 2.02
- UACGUAGGUGGUUUUCCCCAGAUAGUGCUAAGGGGGCCUGGAAGUUUGGACUGGGCAGAGCUCAACACAGCGUGGCAAAGUGGCUGUGGUUAGACUGCCUCUCUGGAUUCCUCGUCACUCAGCAGGGCAUCUCUGAGAGAAAUGCC — lower, 0.02
- UACGUAGGUGGUUUUCCCCUGAUAGUGCUAAGGGGGCCUGGAAGUUUGGACUGGGCAGAGCUCUACACAGCGUGGCAAAGUGGCUGUGGCUAGACUGCCUCCCUGGAUUCCUCGUCACUCAGCAGGGCAUCUCUGAGAGAAAUGCC — lower, 0.34
- UACGUAGGUGGUUUUCCCCUGAUAGUGCUAAGGGGGCCUGGAAGUUUGGACUGGGCAGAGCUCAACACUGCGUGGCAAAGUGGCUGUGGCUAGACUGCCUCUCUGGAUUCCUCGUCACUCAGCAGGGCAUCUCUGAGAGAGAUGCC — lower, 0.07
- UACGUAGGUGGUUUUCCCCUGAUAGUGCUAAGGGGGCCUGGAAGUUCGGACUGGGCAGAGCUCAACACAGCGCGGCAAAGUGGCUGUGGCUAGACUGCCUCUCUGGAUUCCUCGUCACUCAGCAGGGCAUCUCUGAGAGAAAUGCC — higher, 1.55
- UACGUAGGUGGUCUUCCCCUGAUAGUGCUAAGGGGGCCUAGAAGUUUGGACUGGGCAGAGCUCAACACAGCGUGGCAAAGUGGCUGUGGCUAGACUGCCUCUCUGGAUUCCUCGUCACUCAGCAGGGCAUCUCUGAGAGAAAUGCC — lower, 0.91
